The record followed here is publication PMC10671530, “Linking New Alleles at the Oscillator Loci to Flowering and Expansion of Asian Rice”.

The data set addresses OsCCA1 DNA-binding (R/MYB) domain (Oryza sativa (cDNA of Heidao), UniProt A0A0P0XBU0 1-138). Nature of the data set: EMSA; EMSA: 10 uL with 2 uL 5x binding buffer (Invitrogen), 1.3 ug protein, 20 pmol probe, 23 C, 20 min; 10% native PAGE, 100 V about 70 min; gel stained for DNA and. Conditions: protein: recombinant; (pCold vector, Ni Sepharose).

Chain of OsCCA1 DNA-binding (R/MYB) domain (A0A0P0XBU0 1-138): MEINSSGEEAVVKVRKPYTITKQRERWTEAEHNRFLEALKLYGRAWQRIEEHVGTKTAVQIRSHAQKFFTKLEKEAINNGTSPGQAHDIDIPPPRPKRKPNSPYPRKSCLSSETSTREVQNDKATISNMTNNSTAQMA

B1: OsPRR1-p2 (EE probe) (dsDNA)
DNA 1: GTTTCGTTTATTACACCGCCCCGG
DNA 2: CCGGGGCGGTGTAATAAACGAAAC
With B1, the binding result is reported as “binds”.

B2: OsPRR1-p1 (EE probe) (dsDNA)
DNA 1: GTAGGGGGAGGAAAATATCCTGTGCCAGTAG
DNA 2: CTACTGGCACAGGATATTTTCCTCCCCCTAC
Consider B2, for which the binding result is “binds”.

B3: OsPRR1-p3 (EE probe) (dsDNA)
DNA 1: CATCTGGCTTAACCACGCCCGGCTCTC
DNA 2: GAGAGCCGGGCGTGGTTAAGCCAGATG
On to B3, for which the binding result was “binds”.

B4: probe 9 (OsPRR1_a, 12-nt deletion) (dsDNA)
DNA 1: CCAACGCCGCCGCCGC
DNA 2: GCGGCGGCGGCGTTGG
In the case of B4, the binding result was “no binding”.
